Laboratory results as given in patent publication US20230340112A1 (published 2023).

What was measured:
mDC cell surface SIRPα [1] = target: T1, mDC cell surface SIRPα (human, UniProt P78324 31-504); assay: FACS binding; Donor #296
cell-surface SIRPα (mDC) [2] = target: T2, cell-surface SIRPα (mDC) (human, UniProt P78324 31-504); assay: FACS blocking of CD47/SIRPα; Donor #296
cell-surface SIRPα (mDC) [3] = target: T2, cell-surface SIRPα (mDC); assay: FACS blocking of CD47/SIRPα; Donor #298
mDC cell surface SIRPα [4] = target: T1, mDC cell surface SIRPα; assay: FACS binding; Donor #298

T2 sequence (P78324 31-504): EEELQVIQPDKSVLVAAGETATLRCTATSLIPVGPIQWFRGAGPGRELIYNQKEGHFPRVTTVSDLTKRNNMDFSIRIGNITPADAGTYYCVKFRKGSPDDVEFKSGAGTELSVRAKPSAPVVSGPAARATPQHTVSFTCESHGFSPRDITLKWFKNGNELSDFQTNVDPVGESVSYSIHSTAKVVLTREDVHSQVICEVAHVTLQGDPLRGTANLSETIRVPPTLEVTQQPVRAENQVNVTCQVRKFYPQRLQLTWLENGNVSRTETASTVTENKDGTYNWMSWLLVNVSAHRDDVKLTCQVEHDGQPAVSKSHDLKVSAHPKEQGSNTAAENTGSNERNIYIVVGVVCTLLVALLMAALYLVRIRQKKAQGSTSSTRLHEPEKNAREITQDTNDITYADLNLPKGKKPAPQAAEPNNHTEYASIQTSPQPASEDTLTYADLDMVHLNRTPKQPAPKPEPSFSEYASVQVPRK
T1 sequence (P78324 31-504): as above

EC50 (mDC cell surface SIRPα [1]): 0.768 nM | IC50 (cell-surface SIRPα (mDC) [2]): 1.25 nM | IC50 (cell-surface SIRPα (mDC) [3]): 1.77 nM | EC50 (mDC cell surface SIRPα [4]): 1.27 nM
B1: OSE-172 (antibody, V domains shown)
VH: EVQLVQSGAEVKKPGESLRISCKASGYSFTSYWVHWVRQMPGKGLEWMGNIDPSDSDTHYSPSFQGHVTLSVDKSISTAYLQLSSLKASDTAMYYCVRGGTGTLAYFAYWGQGTLVTVSS
VL: DVVMTQSPLSLPVTLGQPASISCRSSQSLVHSYGNTYLYWFQQRPGQSPRLLIYRVSNRFSGVPDRFSGSGSGTDFTLKISRVEAEDVGVYYCFQGTHVPYTFGGGTKVEIKR
